Laboratory results: article PMC7344962 (Antibodies, 2020)
“And” between values parts separate entries of the source, which are not always exact repeats. Identical values can stand only once.

Biological target: T1, major surface antigen 1 (SAG1) of Toxoplasma gondii (Toxoplasma gondii, strain , UniProt P13664)
T1 construct: major surface antigen 1 (SAG1) of Toxoplasma gondii; SAG1 in complex with the parent antibody is in PDB 1YNT (cited); also called antigen SAG1
Assay: SPR; SAG1 covalently immobilised (1000 RU, EDC/NHS) on a CM5S chip; T200, 25 °C, HBS-EP+; single cycle kinetics with scFv at 600-200-66-22-7.5 nM, 50 µL/min; Langmuir 1:1 then two-state fitting model, similar Kd values in both
Details: both partners purified

T1 sequence (P13664 48-336): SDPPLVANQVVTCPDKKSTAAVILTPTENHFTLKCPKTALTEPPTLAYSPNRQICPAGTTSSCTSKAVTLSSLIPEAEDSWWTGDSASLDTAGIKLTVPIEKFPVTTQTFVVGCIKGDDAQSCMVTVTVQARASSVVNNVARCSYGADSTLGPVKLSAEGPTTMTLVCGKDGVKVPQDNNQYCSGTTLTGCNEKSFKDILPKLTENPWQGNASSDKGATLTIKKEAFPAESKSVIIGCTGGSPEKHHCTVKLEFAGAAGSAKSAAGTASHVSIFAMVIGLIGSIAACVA

Binder	Kd
scFv S1A0 (scFv, V domains shown, VH A: wild-type heavy variable domain of the murine monoclonal IgG2a antibody 4F11E12 (anti-SAG1); the antibody is also in PDB 1YNT; (Gly4Ser)3 peptide linker; VL 0: wild-type light variable domain of the murine monoclonal IgG2a antibody 4F11E12 (anti-SAG1); VH-linker-VL orientation; also called wild-type scFv; WT scFv; source: E. coli HB2151 periplasm, purified (HisTrap HP); not shown: …) VH: QVQLQQSGAELVRPGVSVKISCKGSGYTFTDYGMHWVKQSHAKSLEWIGIISTYSGDASYNQKFKGKATMTVDKSSSTAYMELARLTSEDSAIYYCARSSTWYYFDYWGQGTTLTVSS VL: DIQVTQTTSSLSASLGDRVTISCRASQDISNYLNWYQQKPDGTVKLLIYYTSRLHSGVPSRFSGSGSGTDYSLTISNLEQEDIATYFCQQGNTLPYTFGGGTKLEIK	~200 nM
scFv S1D4 (scFv, V domains shown, VH D: as VH A of m1 with the cluster II and cluster III substitutions (VH Z without cluster I); numbers count on: IMGT numbering; (Gly4Ser)3 peptide linker; VL 4: as VL 0 of m1 with the stated changes; VH-linker-VL orientation; source: E. coli HB2151 periplasm; periplasmic extract loaded on HiScreen Capto L, purified; not shown: Gly3AlaSerHis6, C-terminal, kept) VH: QVQLQQSGAELVRPGTSVKISCKASGYTFTDYGMHWVKQRPGHGLEWIGIISTYSGDASYNQKFKGKATMTVDKSSSTAYMQLSSLTSEDSAVYYCARSSTWYYFDYWGQGTLVTVSA VL: DIQMTQTPSSLSASLGDRVTISCRASQDISNYLNWYQQKPDGTVKLLIYYTSRLHSGVPSRFSGSGSGTDYSLTISNLEPEDIATYYCQQGNTLPYTFGGGTKLEIK	~200 nM
scFv S1A4 (scFv, V domains shown, VH A: as the VH of m1 (wild-type VH of 4F11E12); (Gly4Ser)3 peptide linker; VL 4: as VL 0 of m1 with the stated changes; numbers count on: IMGT numbering; VH-linker-VL orientation; source: E. coli HB2151 periplasm; periplasmic extract loaded on HiScreen Capto L, purified; not shown: Gly3AlaSerHis6, C-terminal, kept) VH: QVQLQQSGAELVRPGVSVKISCKGSGYTFTDYGMHWVKQSHAKSLEWIGIISTYSGDASYNQKFKGKATMTVDKSSSTAYMELARLTSEDSAIYYCARSSTWYYFDYWGQGTTLTVSS VL: DIQMTQTPSSLSASLGDRVTISCRASQDISNYLNWYQQKPDGTVKLLIYYTSRLHSGVPSRFSGSGSGTDYSLTISNLEPEDIATYYCQQGNTLPYTFGGGTKLEIK	~200 nM
scFv S1B4 (scFv, V domains shown, VH B: as VH A of m1 with only the cluster III substitutions; (Gly4Ser)3 peptide linker; VL 4: as VL 0 of m1 with the stated changes; numbers count on: IMGT numbering; VH-linker-VL orientation; source: E. coli HB2151 periplasm; periplasmic extract loaded on HiScreen Capto L, purified; not shown: Gly3AlaSerHis6, C-terminal, kept) VH: QVQLQQSGAELVRPGTSVKISCKASGYTFTDYGMHWVKQSHAKSLEWIGIISTYSGDASYNQKFKGKATMTVDKSSSTAYMQLSSLTSEDSAVYYCARSSTWYYFDYWGQGTLVTVSA VL: DIQMTQTPSSLSASLGDRVTISCRASQDISNYLNWYQQKPDGTVKLLIYYTSRLHSGVPSRFSGSGSGTDYSLTISNLEPEDIATYYCQQGNTLPYTFGGGTKLEIK	~200 nM
scFv S1C4 (scFv, V domains shown, VH C: as VH A of m1 with only the cluster II substitutions (C-C' loop); numbers count on: IMGT numbering; (Gly4Ser)3 peptide linker; VL 4: as VL 0 of m1 with the stated changes; VH-linker-VL orientation; source: E. coli HB2151 periplasm; periplasmic extract loaded on HiScreen Capto L, purified; not shown: Gly3AlaSerHis6, C-terminal, kept) VH: QVQLQQSGAELVRPGVSVKISCKGSGYTFTDYGMHWVKQRPGHGLEWIGIISTYSGDASYNQKFKGKATMTVDKSSSTAYMELARLTSEDSAIYYCARSSTWYYFDYWGQGTTLTVSS VL: DIQMTQTPSSLSASLGDRVTISCRASQDISNYLNWYQQKPDGTVKLLIYYTSRLHSGVPSRFSGSGSGTDYSLTISNLEPEDIATYYCQQGNTLPYTFGGGTKLEIK	~200 nM and < 100 nM
